Results as given in patent publication US20200247855A1, “THERAPY AND DIAGNOSTICS” (OXFORD UNIVERSITY INNOVATION LIMITED, priority 2017, published 2020).
Entries after “also recorded” stand apart in the source; their conditions may differ. Read-outs that look alike come from different tables or passages of the source.

How the values were obtained:
CCL5_HUMAN = target: T1, CCL5_HUMAN (Homo sapiens, UniProt P13501); assay: Yeast surface display (YSD) FACS binding
T1 sequence (P13501 24-91): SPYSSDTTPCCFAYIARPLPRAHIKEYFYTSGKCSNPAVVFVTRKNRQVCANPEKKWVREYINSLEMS
How it was run: (§1)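 Yeast clones displaying tick peptides were re-tested by FACS with labelled chemokine. Binding = % of peptide-expressing yeast above a background threshold set with streptavidin-Alexa647 alone; the mean percent shift was used where several clones were isolated. Confirmed binding ("YES") required >3-fold over background mean fluorescence intensity.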

CCL15_HUMAN = target: T2, CCL15_HUMAN (Homo sapiens, UniProt Q16663); assay: Yeast surface display (YSD) FACS binding
T2 sequence (Q16663 22-113): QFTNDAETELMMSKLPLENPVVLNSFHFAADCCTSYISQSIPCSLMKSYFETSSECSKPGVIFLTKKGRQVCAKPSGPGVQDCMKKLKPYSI
How it was run: as §1

CCL25_HUMAN = target: T3, CCL25_HUMAN (Homo sapiens, UniProt O15444); assay: Yeast surface display (YSD) FACS binding
T3 sequence (O15444 24-150): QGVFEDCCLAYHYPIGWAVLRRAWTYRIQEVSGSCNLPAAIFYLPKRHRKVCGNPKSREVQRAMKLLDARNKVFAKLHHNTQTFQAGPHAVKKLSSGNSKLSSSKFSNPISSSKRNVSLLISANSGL
How it was run: as §1

CCL19_HUMAN = target: T4, CCL19_HUMAN (Homo sapiens, UniProt Q99731); assay: Yeast surface display (YSD) FACS binding
T4 sequence (Q99731 22-98): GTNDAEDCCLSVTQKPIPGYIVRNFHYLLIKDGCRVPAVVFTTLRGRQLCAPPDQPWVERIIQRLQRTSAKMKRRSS
How it was run: as §1

CCL4_HUMAN [1] = target: T5, CCL4_HUMAN (Homo sapiens, UniProt P13236); assay: Yeast surface display (YSD) FACS binding
T5 sequence (P13236 24-92): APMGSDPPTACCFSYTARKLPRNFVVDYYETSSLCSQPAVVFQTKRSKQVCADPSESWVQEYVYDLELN
How it was run: as §1

CCL8_HUMAN = target: T6, CCL8_HUMAN (Homo sapiens, UniProt P80075); assay: Biolayer interferometry (BLI) binding; settings: 300 nM or 600 nM CCL8
T6 sequence (P80075 24-99): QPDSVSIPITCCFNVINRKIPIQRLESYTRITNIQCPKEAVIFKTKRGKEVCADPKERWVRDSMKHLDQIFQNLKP
How it was run: (§2)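 Ni-NTA biosensor loaded with His-tagged tick chemokine-binding protein; 300 nM chemokine cross-binding screen; hits repeated with chemokine dose series; Kd from fitted kinetic and equilibrium data.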

CCL3_HUMAN = target: T7, CCL3_HUMAN (Homo sapiens, UniProt P10147); settings: read-out: Kd, CCL3_HUMAN, previously described evasins; data obtained from publications [20-22,32]; cited from earlier work
T7 sequence (P10147 24-92): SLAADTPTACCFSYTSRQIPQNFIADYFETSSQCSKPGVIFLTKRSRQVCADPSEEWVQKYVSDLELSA

CCL4_HUMAN [2] = target: T5, CCL4_HUMAN; settings: read-out: Kd, CCL4_HUMAN, previously described evasins; data obtained from publications [20-22,32]; cited from earlier work
chemokines = settings: list of chemokines bound, from the literature [18,20-22], cited from earlier work
CCL18_HUMAN = target: T8, CCL18_HUMAN (Homo sapiens, UniProt P55774); settings: read-out: Kd, CCL18_HUMAN, previously described evasins; data obtained from publications [20-22,32]; cited from earlier work
T8 sequence (P55774 21-89): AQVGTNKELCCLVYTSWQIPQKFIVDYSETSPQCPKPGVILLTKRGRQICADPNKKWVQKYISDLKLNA

CCL3L1_HUMAN = CCL3L1_HUMAN (Homo sapiens, UniProt P16619); settings: read-out: Kd, CCL3L1_HUMAN, previously described evasins; data obtained from publications [20-22,32]; cited from earlier work
Sequence of CCL3L1_HUMAN (P16619 24-93): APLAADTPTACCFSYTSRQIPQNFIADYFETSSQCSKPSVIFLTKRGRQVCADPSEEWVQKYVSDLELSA

CXCL3_HUMAN = target: T9, CXCL3_HUMAN (Homo sapiens, UniProt P19876); assay: Biolayer interferometry (BLI) binding
T9 sequence (P19876 35-107): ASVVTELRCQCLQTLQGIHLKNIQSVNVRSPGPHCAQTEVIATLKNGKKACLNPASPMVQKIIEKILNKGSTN
How it was run: as §2

CXCL8_HUMAN [3] = target: T10, CXCL8_HUMAN (Homo sapiens, UniProt P10145); assay: Biolayer interferometry (BLI) binding; parameters: label (chemical)
T10 sequence (P10145 21-99): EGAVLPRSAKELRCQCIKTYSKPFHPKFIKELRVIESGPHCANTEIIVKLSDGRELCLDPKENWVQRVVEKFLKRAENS
Description: (§3) Table 1. Tick CKBPs described in PCT/GB2017/050563 and [17]. Tick peptide sequences isolated in yeast surface display fluorescent-activated cell sorting (FACS) screens using a labelled chemokine. Identity with Evasin-1, 4 or 3 was calculated using BLAST. Abbreviations: IXORI—Ixodes ricinus, RHISA—Rhipicephalus sanguineus, AMBMA—Amblyomma maculatum, AMBPA—Amblyomma parvum, AMBTR—Amblyomma triste, AMBAM—Amblyomma americanum, AMBCA—Amblyomma cajennense, RHIPU—Rhipicephalus pulchellus. Table 2A-C. Binding characteristics of tick CKBPs previously disclosed (PCT/GB2017/050563 and [17]). All members of the human chemokine family[164] are listed in column 1. Binding to human chemokines was determined for 14 tick CKBPs using biolayer interferometry (BLI) with calculated Kd shown as Molar (Moles/Litre). […] Association, equilibrium and dissociation data were analysed using Octet software to create corresponding fitted curves, and used to calculate Kd. For yeast surface display, (YSD) background fluorescence was controlled for by using either an empty vector or by omitting the chemokine (i.e. using streptavidin-Alexa647 alone). An arbitrary threshold of >3 fold over background mean fluorescence intensity was chosen to describe confirmed re-tests. Where binding was detected data are indicated as “YES”. […] Data was analysed using GraphPad Prism to determine IC50, which is shown as Molar (Moles/Litre). […]

CXCL1_HUMAN [4] = target: T11, CXCL1_HUMAN (Homo sapiens, UniProt P09341); assay: Biolayer interferometry (BLI) binding; parameters: label (chemical)
T11 sequence (P09341 35-107): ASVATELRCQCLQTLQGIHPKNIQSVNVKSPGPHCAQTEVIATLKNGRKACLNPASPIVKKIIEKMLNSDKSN
Description: as §3

CXCL8_HUMAN [5] = target: T10, CXCL8_HUMAN; settings: read-out: Kd, CXCL8_HUMAN, previously described evasins; data obtained from publications [20-22,32]; cited from earlier work
CXCL1_HUMAN [6] = target: T11, CXCL1_HUMAN; settings: read-out: Kd, CXCL1_HUMAN, previously described evasins; data obtained from publications [20-22,32]; cited from earlier work

B1: P1006_AMBCA: tick CKBP, Amblyomma cajennense (protein)
chain: DTIGGIPGCGDPATTSAPEDQPKHYAVRTDKNGCKVMVIGTWMTKEDHNLLPPYISKERAPSGKVQLPASCKKNCHGKLKNLPNGTPCREVFGDLRRRRKHIKDGCKVGKCQNGLCVSEERIISCYLPPNITDPRPTHGPLAE
modifications: Amblyomma cajennense
Which “Binding to CCL5_HUMAN, YSD” value (CCL5_HUMAN) does the source give for B1 here?
The value was “YES (An arbitrary threshold of >3 fold over background mean fluorescence intensity was chosen to describe confirmed re-tests. Where binding was detected data are indicated as “YES”)”.

And the “Binding to CCL15_HUMAN, YSD” value (CCL15_HUMAN)?
Its value is “YES (An arbitrary threshold of >3 fold over background mean fluorescence intensity was chosen to describe confirmed re-tests. Where binding was detected data are indicated as “YES”)”.

What about the “Binding to CCL25_HUMAN, YSD” value (CCL25_HUMAN) of the same molecule?
The value was “YES (An arbitrary threshold of >3 fold over background mean fluorescence intensity was chosen to describe confirmed re-tests. Where binding was detected data are indicated as “YES”)”.

And the “Binding to CCL19_HUMAN, YSD” value (CCL19_HUMAN)?
Its value is “YES (An arbitrary threshold of >3 fold over background mean fluorescence intensity was chosen to describe confirmed re-tests. Where binding was detected data are indicated as “YES”)”.

B2: P1014_AMBCA: tick CKBP, Amblyomma cajennense (protein)
chain: DIIGGIPGCGDPTTTSAPEVPPKHFAVRTDKDGCTLMIIGTWMTTEDHNRLPPDIGEKRAPYGRVQLPASCKKNCHGKVKNLPNGTPCREVFGDPRRGRKHIKNGCTVGKCQSGLCVTDKRIISCYIPPNITDPIPTHGPWAE
modifications: Amblyomma cajennense
Which “Binding to CCL4_HUMAN, YSD” value (CCL4_HUMAN [1]) does the source give for B2 here?
Its value is “YES (An arbitrary threshold of >3 fold over background mean fluorescence intensity was chosen to describe confirmed re-tests. Where binding was detected data are indicated as “YES”)”.

B3: EVASIN1: previously described tick CKBP evasin 1, from Rhipicephalus sanguineus (protein, listed as Rhipicephalus sanguineus)
chain: EDDEDYGDLGGCPFLVAENKTGYPTIVACKQDCNGTTETAPNGTRCFSIGDEGLRRMTANLPYDCPLGQCSNGDCIPKETYEVCYRRNWRDKKN
Which “CCL8 binding (bound or not)” value (CCL8_HUMAN) does the source give for B3 here?
The value was “did not”.

And the Kd (CCL3_HUMAN)?
Its Kd is 0.1 nM.

What about the Kd (CCL4_HUMAN [2]) of the same molecule?
Its Kd is 0.5 nM.

And the “Previously described chemokine binding” value (chemokines; listed as EVA1_RHISA)?
Its value is “CCL3, CCL3L1, CCL4, CCL4L1, CCL14 and CCL18 but not CCL8; also recorded: CCL3, CCL3L1,; also recorded: CCL4, CCL18”.

What about the Kd (CCL18_HUMAN) of the same molecule?
The Kd was 3 nM.

What about the Kd (CCL3L1_HUMAN) of the same molecule?
The Kd was 0.05 nM.

B4: P1156_IXORI: tick CKBP, Ixodes ricinus (protein, listed as Ixodes ricinus)
chain: ADDDNELFTVQYCGMNCTKDEGGTWTGCTGKKEGCKCYHESGKNYGLCLSTEYTDFSQYGNPSDSEIEAAKPKRSDTLSH
For B4, which Kd (CXCL3_HUMAN) is on record?
The Kd was 81 nM.

And the Kd (CXCL8_HUMAN [3])?
Its Kd is 4.6 nM.

And the Kd (CXCL1_HUMAN [4])?
The Kd was 3.25 nM.

B5: EVASIN3: previously described tick CKBP evasin 3, from Rhipicephalus sanguineus (protein, listed as Rhipicephalus sanguineus)
chain: LVSTIESRTSGDGADNFDVVSCNKNCTSGQNECPEGCFCGLLGQNKKGHCYKIIGNLSGEPPVVRR
Which Kd (CXCL8_HUMAN [5]) does the source give for B5 here?
The Kd was 0.43 nM.

What about the Kd (CXCL1_HUMAN [6]) of the same molecule?
Its Kd is 0.85 nM.

And the “Previously described chemokine binding” value (chemokines)?
The value was “CXCL1, CXCL8”.
